Several values for one entry are separate records, joined by “and”; a condition that tells them apart may be missing. Equal values may be shown once.

For orientation: IC50 means the concentration needed to halve the response being measured.

In one assay the target is T1, recombinant human IL-1β (human, UniProt P01584 117-269).
T1 construct: mature; also called Rec Human IL-1β; recombinant human IL-1beta
As to the kind of experiment: Biacore competition: ACZ885 immobilized on the chip, recombinant human IL-1β (1 nM) injected with increasing soluble IL-1 receptor type I (0-12 nM); % binding of IL-1β to ACZ885; mean ± SEM, n=4. In general terms: Surface plasmon resonance follows binding to a sensor surface in real time, without labels.

Assay [1] has as its target T2, IL-1β derived from rhesus monkeys (rhesus monkey, UniProt P48090 117-269).
T2 construct: also called rhesus IL-1β
In words: not named.

In another assay the target is T3, Rec Cynomolgus IL-1β (cynomolgus, UniProt P79182 117-268).
T3 construct: also called Rec Cynomolgus IL-β; cynomolgous IL-1beta
As to the kind of experiment: Biacore, ACZ885 immobilized.

The next assay deals with T4, Rec Human IL-1α (human, UniProt P01583 113-271).
T4 construct: also called human IL-1alpha
T4 sequence (looked up): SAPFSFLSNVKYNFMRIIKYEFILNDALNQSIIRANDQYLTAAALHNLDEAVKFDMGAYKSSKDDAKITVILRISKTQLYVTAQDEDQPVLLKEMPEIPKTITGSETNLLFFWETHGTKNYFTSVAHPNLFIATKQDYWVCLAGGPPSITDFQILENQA
As to the kind of experiment: Biacore, ACZ885 immobilized.

Assay [2] deals with naturally produced IL-1β in conditioned medium from peripheral blood mononuclear cells (human, UniProt P01584 117-269, limits assumed). In words: cell-based or functional assay.

Procedure for recombinant human IL-1β: Half-maximum values (IC₅₀) were determined graphically using the Origin 6.0 software The mean±SEM is given (n=4).

B1: recombinant human soluble IL-1 type I receptor (receptor, UniProt P14778 18-332, looked up)
chain: LEADKCKEREEKIILVSSANEIDVRPCPLNPNEHKGTITWYKDDSKTPVSTEQASRIHQHKEKLWFVPAKVEDSGHYYCVVRNSSYCLRIKISAKFVENEPNLCYNAQAIFKQKLPVAGDGGLVCPYMEFFKNENNELPKLQWYKDCKPLLLDNIHFSGVKDRLIVMNVAEKHRGNYTCHASYTYLGKQYPITRVIEFITLEENKPTRPVIVSPANETMEVDLGSQIQLICNVTGQLSDIAYWKWNGSVIDEDDPVLGEDYYSVENPANKRRSTLITVLNISEIESRFYKHPFTCFAKNTHGIDAAYIQLIYPVT
notes: Called soluble; also called soluble human IL-1 type I receptor; recombinant human soluble receptor I
B1: the 50% inhibitory concentration (IC50) with recombinant human IL-1β worked out at 0.68 nM.

B2: ACZ 885 antibody (antibody, human IgG1, V domains shown)
VH: QVQLVESGGGVVQPGRSLRLSCAASGFTFSVYGMNWVRQAPGKGLEWVAIIWYDGDNQYYADSVKGRFTISRDNSKNTLYLQMNGLRAEDTAVYYCARDLRTGPFDYWGQGTLVTVSS
VL: EIVLTQSPDFQSVTPKEKVTITCRASQSIGSSLHWYQQKPDQSPKLLIKYASQSFSGVPSRFSGSGSGTDFTLTINSLEAEDAAAYYCHQSSSLPFTFGPGTKVDIK
notes: also called NVP-ACZ885
As for B2, the figures for the binding result (in assay [1]; with Rec Cynomolgus IL-1β; in the assay with Rec Human IL-1α) were “no binding”, “no binding (tested: 8 nM)” and “no binding (tested: 8 nM)”, respectively. For the same molecule, in assay [2], the “IC50, inhibition of IL-1β-induced IL-6 secretion from human dermal fibroblasts, cond. medium (NVP-ACZ885 Batch1)” value was 54 pM and 9.1 ng/ml. The “IC50, inhibition of IL-1β-induced IL-6 secretion from human dermal fibroblasts, cond. medium (NVP-ACZ885 Batch2)” value in assay [2] is 7.4 ng/mL.

Source of the values: patent US20040063913A1 (Novartis, published 2004).
